Blank lines part the entries; values can stand above or below the binder they belong to.
Legend:
Experiment in all cases: holdup assay
Set-up in all cases: key: below the threshold = too weak to quantify, mostly under pKd 3.1 to 4
ARHGAP21, Q5T5U3 = target: T1, ARHGAP21, Q5T5U3
T1 sequence (Q5T5U3 45-169, limits assumed, looked up): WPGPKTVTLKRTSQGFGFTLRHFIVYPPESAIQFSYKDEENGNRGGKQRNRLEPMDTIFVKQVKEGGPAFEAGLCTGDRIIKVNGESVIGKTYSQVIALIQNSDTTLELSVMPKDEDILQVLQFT

DFNB31_2, Q9P202 = target: T2, DFNB31_2, Q9P202
T2 sequence (Q9P202 274-371, limits assumed, looked up): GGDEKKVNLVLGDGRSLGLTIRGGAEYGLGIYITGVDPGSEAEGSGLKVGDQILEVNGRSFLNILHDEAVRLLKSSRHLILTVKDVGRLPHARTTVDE

DLG2_2, Q15700 = target: DLG2_2, Q15700
Chain of DLG2_2, Q15700 (Q15700 189-283): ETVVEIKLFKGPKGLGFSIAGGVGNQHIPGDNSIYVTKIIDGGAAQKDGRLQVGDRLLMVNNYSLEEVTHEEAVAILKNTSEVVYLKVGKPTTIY

DLG5_1, Q8TDM6 = target: DLG5_1, Q8TDM6
Chain of DLG5_1, Q8TDM6 (Q8TDM6 617-713): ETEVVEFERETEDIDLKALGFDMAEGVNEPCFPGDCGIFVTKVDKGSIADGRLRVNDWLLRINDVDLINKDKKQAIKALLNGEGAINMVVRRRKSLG

FRMPD2_2, Q68DX3 = target: FRMPD2_2, Q68DX3
Chain of FRMPD2_2, Q68DX3 (Q68DX3 944-1038): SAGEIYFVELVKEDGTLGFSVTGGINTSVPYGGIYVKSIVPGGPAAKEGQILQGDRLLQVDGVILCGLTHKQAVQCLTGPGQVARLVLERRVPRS

GOPC, Q9HD26 = target: GOPC, Q9HD26
GRASP, Q7Z6J2 = target: GRASP, Q7Z6J2
Chain of GRASP, Q7Z6J2 (Q7Z6J2 96-193): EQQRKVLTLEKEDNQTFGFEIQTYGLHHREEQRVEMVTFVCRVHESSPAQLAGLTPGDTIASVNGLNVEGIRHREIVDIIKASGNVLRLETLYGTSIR

GRIP1_2, Q9Y3R0 = target: T3, GRIP1_2, Q9Y3R0
T3 sequence (Q9Y3R0 145-248, limits assumed, looked up): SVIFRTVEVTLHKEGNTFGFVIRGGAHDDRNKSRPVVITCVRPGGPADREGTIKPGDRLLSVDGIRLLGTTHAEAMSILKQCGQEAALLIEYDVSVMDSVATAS

GRIP2_3, Q9C0E4 = target: GRIP2_3, Q9C0E4
Chain of GRIP2_3, Q9C0E4 (Q9C0E4 238-339): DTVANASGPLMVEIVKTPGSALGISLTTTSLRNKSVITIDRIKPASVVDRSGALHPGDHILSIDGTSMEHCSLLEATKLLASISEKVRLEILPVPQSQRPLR

HTRA2, O43464 = target: HTRA2, O43464
Chain of HTRA2, O43464 (O43464 355-458): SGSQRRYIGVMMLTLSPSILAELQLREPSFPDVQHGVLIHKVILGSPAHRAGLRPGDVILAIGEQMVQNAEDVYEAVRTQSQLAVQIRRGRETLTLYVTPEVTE

HTRA4, P83105 = target: T4, HTRA4, P83105
T4 sequence (P83105 378-476, limits assumed, looked up): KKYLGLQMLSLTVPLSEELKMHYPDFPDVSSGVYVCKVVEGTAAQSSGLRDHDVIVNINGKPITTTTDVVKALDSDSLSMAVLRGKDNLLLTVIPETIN

IL16_4, Q14005 = target: IL16_4, Q14005
Chain of IL16_4, Q14005 (Q14005 1229-1329): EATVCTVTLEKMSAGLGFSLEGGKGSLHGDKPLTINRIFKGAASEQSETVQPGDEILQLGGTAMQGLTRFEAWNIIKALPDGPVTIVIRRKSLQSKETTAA

Inadl_3, Q8NI35 = target: Inadl_3, Q8NI35
Chain of Inadl_3, Q8NI35 (Q8NI35 359-469): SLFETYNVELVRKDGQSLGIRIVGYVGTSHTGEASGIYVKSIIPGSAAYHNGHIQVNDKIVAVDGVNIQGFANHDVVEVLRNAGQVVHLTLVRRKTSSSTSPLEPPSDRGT

Inadl_4, Q8NI35 = target: Inadl_4, Q8NI35
Chain of Inadl_4, Q8NI35 (Q8NI35 547-651): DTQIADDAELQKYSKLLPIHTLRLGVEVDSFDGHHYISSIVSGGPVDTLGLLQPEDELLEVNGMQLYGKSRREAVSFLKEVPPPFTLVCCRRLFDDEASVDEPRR

LAP2, Q96RT1 = target: LAP2, Q96RT1
Chain of LAP2, Q96RT1 (Q96RT1 other isoform, or with tags, fused parts or gaps): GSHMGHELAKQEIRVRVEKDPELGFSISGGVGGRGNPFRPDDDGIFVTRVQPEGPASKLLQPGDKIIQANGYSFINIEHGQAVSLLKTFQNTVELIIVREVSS

MAGI1_1, Q96QZ7 = target: MAGI1_1, Q96QZ7
Chain of MAGI1_1, Q96QZ7 (Q96QZ7 1-106): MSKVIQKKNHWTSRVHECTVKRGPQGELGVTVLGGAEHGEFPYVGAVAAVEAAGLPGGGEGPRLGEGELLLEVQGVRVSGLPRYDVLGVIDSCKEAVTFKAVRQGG

MAGI2_5, Q86UL8 = target: MAGI2_5, Q86UL8
Chain of MAGI2_5, Q86UL8 (Q86UL8 915-1017): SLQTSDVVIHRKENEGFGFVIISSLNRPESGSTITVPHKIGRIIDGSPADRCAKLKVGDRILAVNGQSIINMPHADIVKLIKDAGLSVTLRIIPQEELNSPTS

MAGI3_2, Q5TCQ9 = target: MAGI3_2, Q5TCQ9
Chain of MAGI3_2, Q5TCQ9 (Q5TCQ9 398-503): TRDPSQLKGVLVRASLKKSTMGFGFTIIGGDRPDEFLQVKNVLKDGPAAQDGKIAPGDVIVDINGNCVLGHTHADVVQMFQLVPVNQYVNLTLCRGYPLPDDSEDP

MPP2, Q14168 = target: T5, MPP2, Q14168
T5 sequence (Q14168 180-250, limits assumed, looked up): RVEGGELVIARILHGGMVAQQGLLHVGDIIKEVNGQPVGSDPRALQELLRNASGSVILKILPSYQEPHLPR

NHERF2_2, Q15599 = target: NHERF2_2, Q15599
Chain of NHERF2_2, Q15599 (Q15599 142-238): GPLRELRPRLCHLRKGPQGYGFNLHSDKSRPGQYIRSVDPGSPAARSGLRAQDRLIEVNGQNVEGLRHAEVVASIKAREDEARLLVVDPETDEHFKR

PARD3B_1, Q8TEW8 = target: T6, PARD3B_1, Q8TEW8
T6 sequence (Q8TEW8 196-299, limits assumed, looked up): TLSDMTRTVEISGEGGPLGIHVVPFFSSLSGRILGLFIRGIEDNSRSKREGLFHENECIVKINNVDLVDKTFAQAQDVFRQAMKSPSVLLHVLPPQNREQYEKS

PARD3_3, Q8TEW0 = target: PARD3_3, Q8TEW0
Chain of PARD3_3, Q8TEW0 (Q8TEW0 582-685): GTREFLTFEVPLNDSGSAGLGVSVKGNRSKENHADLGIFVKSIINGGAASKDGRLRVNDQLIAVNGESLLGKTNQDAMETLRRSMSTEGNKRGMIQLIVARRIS

PDZRN3_1, Q9UPQ7 = target: T7, PDZRN3_1, Q9UPQ7
T7 sequence (Q9UPQ7 244-349, limits assumed, looked up): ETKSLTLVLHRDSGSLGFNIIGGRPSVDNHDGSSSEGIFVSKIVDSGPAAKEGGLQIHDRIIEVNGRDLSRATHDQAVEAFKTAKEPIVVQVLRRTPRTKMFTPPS

SHANK1, Q9Y566 = target: T8, SHANK1, Q9Y566
T8 sequence (Q9Y566 658-767, limits assumed, looked up): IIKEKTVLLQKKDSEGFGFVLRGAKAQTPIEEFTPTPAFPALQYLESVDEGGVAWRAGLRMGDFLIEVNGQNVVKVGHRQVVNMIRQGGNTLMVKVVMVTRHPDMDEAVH

SNTB1, Q13884 = target: T9, SNTB1, Q13884
T9 sequence (Q13884 107-205, limits assumed, looked up): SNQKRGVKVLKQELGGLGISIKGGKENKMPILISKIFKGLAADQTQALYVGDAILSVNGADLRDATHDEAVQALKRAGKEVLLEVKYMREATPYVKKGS

TX1BP3, O14907 = target: T10, TX1BP3, O14907
T10 sequence (O14907 10-122, limits assumed, looked up): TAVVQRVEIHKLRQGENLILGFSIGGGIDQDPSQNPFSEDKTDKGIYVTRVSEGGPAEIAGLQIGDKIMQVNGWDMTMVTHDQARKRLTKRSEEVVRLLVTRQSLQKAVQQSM

[1] = plain residues with an end cap or a label only (N-terminal biotin on a linker: ado-ado)
[2] = plain residues with an end cap or a label only (N-terminal biotin on a linker: ahx)

- pKd (ARHGAP21, Q5T5U3; [1]): below the threshold
- pKd (DFNB31_2, Q9P202; [1]): below the threshold
- pKd (DLG2_2, Q15700; [1]): below the threshold
- pKd (DLG5_1, Q8TDM6; [1]): below the threshold
- pKd (FRMPD2_2, Q68DX3; [1]): 3.73
- pKd (GOPC, Q9HD26; [1]): below the threshold
- pKd (GRASP, Q7Z6J2; [1]): below the threshold
- pKd (GRIP1_2, Q9Y3R0; [1]): below the threshold
- pKd (GRIP2_3, Q9C0E4; [1]): below the threshold
- pKd (HTRA2, O43464; [1]): below the threshold
- pKd (HTRA4, P83105; [1]): below the threshold
- pKd (IL16_4, Q14005; [1]): below the threshold
- pKd (Inadl_3, Q8NI35; [1]): below the threshold
- pKd (Inadl_4, Q8NI35; [1]): below the threshold
- pKd (LAP2, Q96RT1; [1]): 4.09
- pKd (MAGI1_1, Q96QZ7; [1]): below the threshold
- pKd (MAGI2_5, Q86UL8; [1]): below the threshold
- pKd (MAGI3_2, Q5TCQ9; [1]): 3.99
- pKd (MPP2, Q14168; [1]): below the threshold
- pKd (NHERF2_2, Q15599; [1]): below the threshold
- pKd (PARD3B_1, Q8TEW8; [1]): below the threshold
- pKd (PARD3_3, Q8TEW0; [1]): below the threshold
- pKd (PDZRN3_1, Q9UPQ7; [1]): below the threshold
- pKd (SHANK1, Q9Y566; [1]): below the threshold
- pKd (SNTB1, Q13884; [1]): below the threshold
- pKd (TX1BP3, O14907; [1]): below the threshold
Binder: QRPYRRGSEI [KCNJ18, B7U540]

- pKd (ARHGAP21, Q5T5U3; [1]): below the threshold
- pKd (DFNB31_2, Q9P202; [1]): below the threshold
- pKd (DLG2_2, Q15700; [1]): 3.86
- pKd (DLG5_1, Q8TDM6; [1]): below the threshold
- pKd (FRMPD2_2, Q68DX3; [1]): below the threshold
- pKd (GOPC, Q9HD26; [1]): below the threshold
- pKd (GRASP, Q7Z6J2; [1]): below the threshold
- pKd (GRIP1_2, Q9Y3R0; [1]): below the threshold
- pKd (GRIP2_3, Q9C0E4; [1]): below the threshold
- pKd (HTRA2, O43464; [1]): below the threshold
- pKd (HTRA4, P83105; [1]): below the threshold
- pKd (IL16_4, Q14005; [1]): below the threshold
- pKd (Inadl_3, Q8NI35; [1]): below the threshold
- pKd (Inadl_4, Q8NI35; [1]): below the threshold
- pKd (LAP2, Q96RT1; [1]): below the threshold
- pKd (MAGI1_1, Q96QZ7; [1]): below the threshold
- pKd (MAGI2_5, Q86UL8; [1]): below the threshold
- pKd (MAGI3_2, Q5TCQ9; [1]): 4.9
- pKd (MPP2, Q14168; [1]): below the threshold
- pKd (NHERF2_2, Q15599; [1]): below the threshold
- pKd (PARD3B_1, Q8TEW8; [1]): below the threshold
- pKd (PARD3_3, Q8TEW0; [1]): below the threshold
- pKd (PDZRN3_1, Q9UPQ7; [1]): 4.43
- pKd (SHANK1, Q9Y566; [1]): below the threshold
- pKd (SNTB1, Q13884; [1]): 4.03
- pKd (TX1BP3, O14907; [1]): 4.82
Binder: NISYRRESAI [KCNJ4, P48050]

- pKd (ARHGAP21, Q5T5U3; [2]): below the threshold
- pKd (DFNB31_2, Q9P202; [2]): 4.79
- pKd (DLG2_2, Q15700; [2]): 4.17
- pKd (DLG5_1, Q8TDM6; [2]): below the threshold
- pKd (FRMPD2_2, Q68DX3; [2]): 5.31
- pKd (GOPC, Q9HD26; [2]): 4.28
- pKd (GRASP, Q7Z6J2; [2]): 3.57
- pKd (GRIP1_2, Q9Y3R0; [2]): below the threshold
- pKd (GRIP2_3, Q9C0E4; [2]): below the threshold
- pKd (HTRA2, O43464; [2]): below the threshold
- pKd (HTRA4, P83105; [2]): below the threshold
- pKd (IL16_4, Q14005; [2]): below the threshold
- pKd (Inadl_3, Q8NI35; [2]): 3.75
- pKd (Inadl_4, Q8NI35; [2]): below the threshold
- pKd (LAP2, Q96RT1; [2]): 4.41
- pKd (MAGI1_1, Q96QZ7; [2]): below the threshold
- pKd (MAGI2_5, Q86UL8; [2]): 4.58
- pKd (MAGI3_2, Q5TCQ9; [2]): 5.14
- pKd (MPP2, Q14168; [2]): below the threshold
- pKd (NHERF2_2, Q15599; [2]): 3.64
- pKd (PARD3B_1, Q8TEW8; [2]): below the threshold
- pKd (PARD3_3, Q8TEW0; [2]): below the threshold
- pKd (PDZRN3_1, Q9UPQ7; [2]): 4.31
- pKd (SHANK1, Q9Y566; [2]): below the threshold
- pKd (SNTB1, Q13884; [2]): 5.22
- pKd (TX1BP3, O14907; [2]): 4.74
Binder: QDEKVKESYV [ABCA1, O95477]
